This passage reports EC50 (read off the curve) results from US20250297009A1.

Assay [1] concerns the target Human TGF-β3 (PeproTech, 100-36E) (human) (UniProt P10600). The assay can be described thus: ELISA, human TGF-β3 coated, mouse anti-human Fc-HRP detection. A general note: ELISA stands for enzyme-linked immunosorbent assay.
The target of assay [2] is Human TGF-β1 (Acrobiosystems, TG1-H421) (human) (UniProt P01137). The assay can be described thus: ELISA, human TGF-β1 coated, mouse anti-human Fc-HRP detection.
Human TGF-β1 (Acrobiosystems, TG1-H421) (human), sequence (P01137 279-390 limits assumed): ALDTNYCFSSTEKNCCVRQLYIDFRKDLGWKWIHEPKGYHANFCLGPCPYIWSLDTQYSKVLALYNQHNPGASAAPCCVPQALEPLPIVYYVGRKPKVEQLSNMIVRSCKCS

Human TGF-β3 (PeproTech, 100-36E) (human), sequence (P10600 301-412 limits assumed): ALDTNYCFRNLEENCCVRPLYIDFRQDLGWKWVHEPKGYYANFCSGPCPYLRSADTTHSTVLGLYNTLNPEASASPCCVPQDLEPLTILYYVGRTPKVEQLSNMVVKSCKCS

For orientation: EC50 (read off the curve) means the concentration needed to bring the measured effect to its halfway point. TGF-βRII (Fc fusion): the figures for the concentration for a half-maximal effect (EC50 (read off the curve)) in assay [1] and in assay [2] were 0.2 nM and 0.3 nM, respectively.
